Assay results from PMC2408616, “Modular Organization and Combinatorial Energetics of Proline–Tyrosine Nuclear Localization Signals” (PLoS Biology, 2008).

B1: MBP–Hrp1p NLS [S. cerevisiae] / Kap104p [yeast (S. cerevisiae)] (parent complex)
chain 1: RDRNDRDRDYNHRSGGNHRRNGRGGRGGYNRRNNGYHPYNR
chain 2: MASTWKPAEDYVLQLATLLQNCMSPNPEIRNNAMEAMENFQLQPEFLNYLCYILIEGESDDVLKQHYSLQDLQNNRATAGMLLKNSMLGGNNLIKSNSHDLGYVKSNIIHGLYNSNNNLVSNVTGIVITTLFSTYYRQHRDDPTGLQMLYQLLELTSNGNEPSIKALSKIMEDSAQFFQLEWSGNTKPMEALLDSFFRFISNPNFSPVIRSESVKCINTVIPLQTQSFIVRLDKFLEIIFQLAQNDENDLVRAQICISFSFLLEFRPDKLVSHLDGIVQFMLHLITTVNEEKVAIEACEFLHAFATSPNIPEHILQPYVKDIVPILLSKMVYNEESIVLLEASNDDDAFLEDKDEDIKPIAPRIVKKKEAGNGEDADDNEDDDDDDDDEDGDVDTQWNLRKCSAATLDVMTNILPHQVMDIAFPFLREHLGSDRWFIREATILALGAMAEGGMKYFNDGLPALIPFLVEQLNDKWAPVRKMTCWTLSRFSPWILQDHTEFLIPVLEPIINTLMDKKKDVQEAAISSVAVFIENADSELVETLFYSQLLTSFDKCLKYYKKKNLIILYDAIGRFAEKCALDETAMQIILPPLIEKWALLSDSDKELWPLLECLSCVASSLGERFMPMAPEVYNRAFRILCHCVELEAKSHQDPTIVVPEKDFIITSLDLIDGLVQGLGAHSQDLLFPQGTKDLTILKIMLECLQDPVHEVRQSCFALLGDIVYFFNSELVIGNLEDFLKLIGTEIMHNDDSDGTPAVINAIWALGLISERIDLNTYIIDMSRIILDLFTTNTQIVDSSVMENLSVTIGKMGLTHPEVFSSGAFANDSNWNKWCLSVNALDDVEEKSSAYMGFLKIINLTSTEVTMSNDTIHKIVTGLSSNVEANVFAQEIYTFLMNHSAQISAINFTPDEISFLQQFTS
B2: MBP–Nab2p NLS [S. cerevisiae] / Kap104p [yeast (S. cerevisiae)] (parent complex)
chain 1: DNSQRFTQRGGGAVGKNRRGGRGGNRGGRNNNSTRFNPLAKALGMAGESNM
chain 2: B1 chain 2

Variants of: B1
Test: ITC; parent: -10.1

| Variant | dG |
| --- | --- |
| chain 1 RDRNDRDRDYNHRSGGNHARNGRGGRGGYNRRNNGAHPYNR | -9.7 kcal/mol |
| chain 1 RDRNDRDRDYNHRSGGNHRRNGRGGRGGYNARNNGYHPYNR | -10 kcal/mol |
| chain 1 RDRNDRDRDYNHRSGGNHRRNGRGGRGGYNRRNNGLHPYNR | -10 kcal/mol |
| chain 1 RDRNDRDRDYNHRSGGNHKKNGKGGKGGYNRRNNGYHPYNR | -10 kcal/mol |
| chain 1 RDRNDRDRDYNHRSGGNHRRNGRGGRGGYNRANNGYHPYNR | -10.5 kcal/mol |

Variants of: B2
Test: ITC; parent: 37 nM

| Variant | Kd |
| --- | --- |
| chain 1 DNSQRFTQRGGGAVGKNKKGGKGGNKGGKNNNSTRFNPLAKALGMAGESNM | 21 nM |
| chain 1 DNSQRFTQRGGGAVGKNRRGGRGGNRGGRNNNSTRLNPLAKALGMAGESNM | 66 nM |
| chain 1 DNSQRFTQRGGGAVGKNRRGGRGGNRGGRNNNSTRANPLAKALGMAGESNM | 296 nM |
| chain 1 DNSQRFTQRGGGAVGKNRRGGRGGNRGGRNNNSTHFNPLAKALGMAGESNM | 63 nM |
